From PMC11840927, “Frataxin Traps Low Abundance Quaternary Structure to Stimulate Human Fe–S Cluster Biosynthesis” (Biochemistry, 2025)

Target: T1, NFS1(Δ1–55)-ISD11(S11A)-ACPec complex with N-terminal His6 tag on NFS1 (human | Escherichia coli, UniProt Q9Y697 56-457; Q9HD34 1-91; P0A6A8 1-78, S11A, covalently attached PLP | acyl-4′PPT (assumed mass 523 Da))
T1 construct: NFS1, human cysteine desulfurase, Δ1–55 (residues 56 to the C-terminus); ISD11 (LYRM superfamily), human, S11A; Escherichia coli acyl-carrier protein (ACPec) associated with NFS1-ISD11; Used uniformly 14N or 15N labelled in the exchange experiments; Calculated masses excluded the N-terminal methionine if present; also called SDAec; His-tagged SDAec; not shown: His6, N-terminal, kept; copies: 2 + …
Test: native MS; complexes formed before the exchange reaction: SDAec with ISCU2 (1:3) or ISCU2 and FXN (1:3:3), IscS with IscU (1:3), 30 min, room temperature, EMR Orbitrap
Conditions: both partners purified

Binder | binding result
ISCU2 (Δ1–35) (natural protein, human, UniProt Q9H1K1-1 36-167, looked up, ISCU2, human Fe–S cluster scaffold protein, Δ1–35 (residues 36 to the C-terminus); Two constructs were made, ISCU2-TEV-GST and ISCU2-TEV-GST-His6; Residues of the TEV site may remain at the C-terminus after cleavage (surmised); also called scaffold protein; source: E. coli BL21(DE3), purified (GST column, TEV digestion, Ni-NTA, cation exchange, Sephacryl S100); not shown: GST, C-terminal, cleaved) HKKVVDHYENPRNVGSLDKTSKNVGTGLVGAPACGDVMKLQIQVDEKGKIVDARFKTFGCGSAIASSSLATEWVKGKTVEEALTIKNTDIAKELCLPPVKLHCSMLAEDAIKAALADYKLKQEPKKGEAEKK | binds
FXN (Δ1–81) (natural protein, human, UniProt Q16595 82-210, looked up, frataxin (FXN), human, Δ1–81 (residues 82 to the C-terminus); also called frataxin) GTLGHPGSLDETTYERLAEETLDSLAEFFEDLADKPYTFEDYDVSFGSGVLTVKLGGDLGTYVINKQTPNKQIWLSSPSSGPKRYDWTGKNWVYSHDGVSLHELLAAELTKALKTKLDLSSLAYSGKDA | binds
